Experimental findings from publication PMC4648099 are described below.

In this data set the target is thrombin (alpha-thrombin) (UniProt P00734+P00734). The experiment in a line: competition (FAM fluorescence displacement). The note with it: G8 replaced by 5-nitroindole (N at position 8); Fluorescence assays: 10 mM sodium cacodylate pH 7.2, 100 mM KCl, 20 °C, 20 nM FAM-aptamer (100 nM thrombin in displacement); EMSA: 1xTBE pH 8.3, 100 mM KCl ….

“And” between values parts separate entries of the source, which are not always exact repeats. Identical values can stand only once.

Turning to GGTTGGTNTGGTTGG [TBA-N8], the Kd was 2.3 nM and 1.7 nM.
